T1: DAGLβ (Mus musculus, UniProt Q91WC9)
T1 sequence (Q91WC9 1-669): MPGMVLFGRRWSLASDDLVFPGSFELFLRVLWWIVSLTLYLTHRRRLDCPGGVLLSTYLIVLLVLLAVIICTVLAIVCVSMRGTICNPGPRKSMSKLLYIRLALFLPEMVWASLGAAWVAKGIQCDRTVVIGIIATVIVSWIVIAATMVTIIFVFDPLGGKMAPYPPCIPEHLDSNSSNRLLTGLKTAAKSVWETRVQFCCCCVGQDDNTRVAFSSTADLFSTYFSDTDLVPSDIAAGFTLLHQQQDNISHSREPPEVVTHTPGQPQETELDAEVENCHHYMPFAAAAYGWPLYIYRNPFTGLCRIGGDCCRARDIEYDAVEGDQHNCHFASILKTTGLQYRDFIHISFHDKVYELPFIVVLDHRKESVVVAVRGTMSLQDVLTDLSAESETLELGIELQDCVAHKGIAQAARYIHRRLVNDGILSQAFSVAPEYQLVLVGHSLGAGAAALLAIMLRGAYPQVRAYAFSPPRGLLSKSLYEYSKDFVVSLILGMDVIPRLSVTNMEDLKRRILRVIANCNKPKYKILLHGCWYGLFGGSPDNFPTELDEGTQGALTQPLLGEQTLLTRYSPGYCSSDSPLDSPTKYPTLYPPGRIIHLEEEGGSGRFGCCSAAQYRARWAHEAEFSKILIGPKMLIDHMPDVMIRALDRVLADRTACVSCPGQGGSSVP

B1: DAGLα (Homo sapiens) (protein)
chain: MPGIVVFRRRWSVGSDDLVLPAIFLFLLHTTWFVILSVVLFGLVYNPHEACSLNLVDHGRGYLGILLSCMIAEMAIIWLSMRGGILYTEPRDSMQYVLYVRLAILVIEFIYAIVGIVWLTQYYTSCNDLTAKNVTLGMVVCNWVVILSVCITVLCVFDPTGRTFVKLRATKRRQRNLRTYNLRHRLEEGQATSWSRRLKVFLCCTRTKDSQSDAYSEIAYLFAEFFRDLDIVPSDIIAGLVLLRQRQRAKRNAVLDEANNDILAFLSGMPVTRNTKYLDLKNSQEMLRYKEVCYYMLFALAAYGWPMYLMRKPACGLCQLARSCSCCLCPARPRFAPGVTIEEDNCCGCNAIAIRRHFLDENMTAVDIVYTSCHDAVYETPFYVAVDHDKKKVVISIRGTLSPKDALTDLTGDAERLPVEGHHGTWLGHKGMVLSAEYIKKKLEQEMVLSQAFGRDLGRGTKHYGLIVVGHSLGAGTAAILSFLLRPQYPTLKCFAYSPPGGLLSEDAMEYSKEFVTAVVLGKDLVPRIGLSQLEGFRRQLLDVLQRSTKPKWRIIVGATKCIPKSELPEEVEVTTLASTRLWTHPSDLTIALSASTPLYPPGRIIHVVHNHPAEQCCCCEQEEPTYFAIWGDNKAFNEVIISPAMLHEHLPYVVMEGLNKVLENYNKGKTALLSAAKVMVSPTEVDLTPELIFQQQPLPTGPPMPTGLALELPTADHRNSSVRSKSQSEMSLEGFSEGRLLSPVVAAAARQDPVELLLLSTQERLAAELQARRAPLATMESLSDTESLYSFDSRRSSGFRSIRGSPSLHAVLERDEGHLFYIDPAIPEENPSLSSRTELLAADSLSKHSQDTQPLEAALGSGGVTPERPPSAAANDEEEEVGGGGGGPASRGELALHNGRLGDSPSPQVLEFAEFIDSLFNLDSKSSSFQDLYCMVVPESPTSDYAEGPKSPSQQEILLRAQFEPNLVPKPPRLFAGSADPSSGISLSPSFPLSSSGELMDLTPTGLSSQECLAADKIRTSTPTGHGASPAKQDELVISAR
B2: DAGLβ (Mus musculus) (protein)
chain: T1 sequence (Q91WC9 1-669)

Columns and labels:
[1] = biological target: T1, DAGLβ; test: radiolabeled DAG hydrolysis assay, homogenates of transfected COS cells; type: biochemical
[2] = substrate: CCCCC/C=C\C/C=C\C/C=C\C/C=C\CCCC(=O)O[C@@H](CO)COC(=O)CCCCCCCCCCCCCCCCC; test: cells, lysate or membranes

Row | Molecule | IC50 [1] | Km [2]
1 | CCCCCCCCCCC[C@@H](C[C@@H]1OC(=O)[C@H]1CCCCCC)OC(=O)[C@H](CC(C)C)NC=O [THL, tetrahydrolipstatin] | 100 nM | –
2 | B1 | – | 154.7 ± 19.1 µM
3 | B2 | – | 74.1 ± 4.9 µM
